Results from patent publication US20210079109A1 (Regeneron, published 2021).

T1: human CD63 (human, UniProt P08962 2-238)
T1 construct: stably transfected in NIH3T3/hCD63; The cell line is named under assay; also called hCD63
T1 sequence: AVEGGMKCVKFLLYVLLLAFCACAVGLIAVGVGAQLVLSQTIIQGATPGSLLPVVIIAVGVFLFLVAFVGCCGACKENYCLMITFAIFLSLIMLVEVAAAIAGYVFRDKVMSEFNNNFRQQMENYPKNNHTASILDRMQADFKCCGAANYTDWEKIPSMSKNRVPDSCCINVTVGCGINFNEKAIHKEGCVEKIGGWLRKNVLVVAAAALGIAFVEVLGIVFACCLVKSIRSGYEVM


How the values were obtained:
human CD63 [1] = target: T1, human CD63; test: ECL, LNCAP cells
Protocol: (§1) LNCAP cells were determined to have a lower human CD63 copy number than U87MG cells. Non-transfected NIH3T3 cells, which have no detectable expression of human CD63 by fluorescence activated cell sorting (FACS), were included as a negative control.
(§2) Briefly, cell lines were rinsed once in PBS buffer without Ca²⁺/Mg²⁺ and incubated for 10 minutes at 37° C. with Enzyme Free Cell Dissociation Solution (Millipore, Cat #S-004-C) to detach the cells. Cells were then washed once with PBS with Ca²⁺/Mg²⁺ and counted with a Cellometer™ Auto T4 cell counter (Nexcelom Bioscience, LLC). Approximately 2.0×10⁴ NIH3T3/hCD63, LNCAP, U87MG or NIH3T3 cells were seeded separately onto 96-well carbon electrode plates […]) and were then incubated for one hour at 37° C. Nonspecific binding sites were blocked with 2% BSA (w/v) in PBS with Ca²⁺/Mg²⁺ for one hour at room temperature (RT). Solutions containing anti-CD63 antibodies or isotype control antibodies at a range of concentrations (1.7 pM to 100 nM) in 0.5% BSA (w/v) in PBS with Ca²⁺/Mg²⁺, as well as control buffer alone, were then added in duplicate to the plate-bound NIH3T3/hCD63, LNCAP, U87MG or NIH3T3 cells and incubated for one hour at RT. Plates were subsequently washed to remove unbound antibodies using an AquaMax2000 plate washer with a cell washing head (MDS Analytical Technologies). […] Plates were washed and then incubated with Read Buffer (MSD, Cat #R92TD-2) according to the manufacturer's instructions. Luminescent signals were measured using a SECTOR Imager (MSD).

human CD63 [2] = target: T1, human CD63; test: ECL, U87MG cells
Protocol: as §1, §2

human CD63 [3] = target: T1, human CD63; test: ECL, NIH3T3/hCD63 cells
Protocol: as §1, §2

[4] = target: T2, recombinant human CD63 extracellular loop 2 expressed with a C-terminal Myc-Myc-hexahistidine (human); test: SPR Biacore, mAb captured, 25C
T2 construct: also called hCD63 EC loop 2-MMH; human CD63 EC loop 2-MMH
Protocol: (§3) Equilibrium dissociation constants (KD) for different CD63 (EC2) loop reagents binding to purified anti-CD63 monoclonal antibodies were determined using a real-time surface plasmon resonance based Biacore T200 biosensor or Biacore 2000 biosensor. All binding studies were performed in 10 mM HEPES, 150 mM NaCl, 3 mM EDTA, and 0.05% v/v Surfactant Tween-20, pH 7.4 (HBS-ET) running buffer at 25° C. and 37° C. The Biacore CMS sensor chip surface was first derivatized by amine coupling with either a rabbit anti-mouse Fc specific polyclonal antibody (GE Healthcare, Cat #BR100838) or an anti-human Fab kit (GE Healthcare, Cat #28958325) to capture anti-CD63 monoclonal antibodies. […] The association rate (Kₐ) and dissociation rate (kd) were determined by fitting the real-time binding sensorgrams to a 1:1 binding model with mass transport limitation using Scrubber 2.0c curve-fitting software. Binding dissociation equilibrium constant (KD) and dissociative half-life (t½) were calculated from the kinetic rates as: […]
(§4) Binding kinetics parameters for human CD63 EC loop 2 protein binding to different anti-CD63 monoclonal antibodies of the invention at 25° C. and 37° C. are shown in Tables 6 through 9.

[5] = target: T3, recombinant human CD63 extracellular loop 2 expressed with a C-terminal human Fc tag (human); test: SPR Biacore, mAb captured, 25C
T3 construct: also called hCD63 EC loop 2-hFc; human CD63 EC loop 2-Fc
Protocol: as §3, §4

[6] = target: T2, recombinant human CD63 extracellular …; test: SPR Biacore, mAb captured, 37C
Protocol: as §3, §4

[7] = target: T3, recombinant human CD63 extracellular …; test: SPR Biacore, mAb captured, 37C
Protocol: as §3, §4

T2 sequence (chain, as listed by the source limits assumed): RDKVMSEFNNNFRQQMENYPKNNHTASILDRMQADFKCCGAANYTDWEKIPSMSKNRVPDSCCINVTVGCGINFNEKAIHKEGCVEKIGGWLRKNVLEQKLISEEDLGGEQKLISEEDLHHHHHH
T3 sequence (chain, as listed by the source limits assumed): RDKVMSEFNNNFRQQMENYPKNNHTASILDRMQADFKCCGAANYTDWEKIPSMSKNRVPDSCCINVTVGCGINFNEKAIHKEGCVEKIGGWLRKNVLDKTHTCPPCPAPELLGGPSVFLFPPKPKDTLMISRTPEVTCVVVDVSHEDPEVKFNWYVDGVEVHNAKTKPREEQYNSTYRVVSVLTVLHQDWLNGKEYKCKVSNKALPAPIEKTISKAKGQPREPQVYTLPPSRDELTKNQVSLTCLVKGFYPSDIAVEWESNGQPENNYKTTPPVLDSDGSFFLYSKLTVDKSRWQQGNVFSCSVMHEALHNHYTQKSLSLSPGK

Binder	EC50 (human CD63 [1]) [nM]	binding ratio at 3.7 nM vs NIH3T3 (human CD63 [1]) [fold]	EC50 (human CD63 [2]) [nM]	binding ratio at 3.7 nM vs NIH3T3 (human CD63 [2]) [fold]	EC50 (human CD63 [3]) [nM]	binding ratio at 3.7 nM vs NIH3T3 (human CD63 [3]) [fold]	100 nM Ag Bound (RU) [4] [RU]	Kd [4] [nM]	koff [4] [s⁻¹]	kon [4] [M⁻¹ s⁻¹]	t1/2 [4] [min]	100 nM Ag Bound (RU) [5] [RU]	Kd [5] [nM]	koff [5] [s⁻¹]	kon [5] [M⁻¹ s⁻¹]	t1/2 [5] [min]	100 nM Ag Bound (RU) [6] [RU]	Kd [6] [nM]	koff [6] [s⁻¹]	kon [6] [M⁻¹ s⁻¹]	further results
H2M12394N (antibody, V domains shown, also called H2aM12394N) VH: QVQLQESGPGLVKPSETLSLTCTVSGGSISSYYWNWIRQSPGKGLEWIGYTKKRSTNYNPSLRSRVTISEDTSKNQFSLKMSSVTAADTAVYYCAKMGWGSHAFDIWGQGTMVTVSS VL: not shown	0.75	4	1.4	50	0.38	61	27	9.36	0.000553	59100	21	59	1.76	0.000144	81800	80	19	76.7	0.00277	36200	t1/2 [6]: 4 min; 100 nM Ag Bound (RU) [7]: 67 RU; Kd [7]: 1.54 nM; koff [7]: 0.000504 s⁻¹; kon [7]: 327000 M⁻¹ s⁻¹; t1/2 [7]: 23 min
H1M12362N (antibody, V domains shown) VH: QVQLVESGGGLVKPGGSLRLSCAASGFIFSDYYINWIRQAPGKGLEWVSYTSSSGSTTYYEDSVKGRFTMSRDNARNLVYLQMNSLRAEDTAAYYCVRDLRYNDGLDVWGQGTTVTVSS VL: DILLTQSPSSLSASVGDRVTITCRASQSIRTYLNWYQQKPGRAPKLLVYAASSLQSGVPSRFSGSGSGTDFTLTISSLQPEDFATYFCQQSYDNPPITFGQGTRLAIK	0.57	16	0.56	174	0.63	283	51	12.7	0.00144	113000	8	125	0.84	0.000399	477000	29	32	19.5	0.0072	369000	t1/2 [6]: 2 min; 100 nM Ag Bound (RU) [7]: 118 RU; Kd [7]: 0.977 nM; koff [7]: 0.000669 s⁻¹; kon [7]: 685000 M⁻¹ s⁻¹; t1/2 [7]: 17 min
H1M12366N (antibody, V domains shown, also called H3M12366N) VH: QVQLQESGPGLVKPSETLSLTCTVSGGSISSYYWNWIRQSPEKGLEWIGYIYISGTTNYNPSLKSRVTISVDTFKNQFSLKLNSVTAADTAVYYCARMGLGREAFDIWGQGTMVTVSS VL: not shown	1.8	7	2	107	0.83	310															
H1M12388N (antibody, V domains shown) VH: QVQLEESGGGVVKAGGSLRLSCAASGFTFSDYYINWIRQAPGKGLEWVSYINNGGYTIYYADSVKGRFTMSRDNAKNSVYLQMNGLRAEDTAFYYCVRDPRSYYGFDYWGQGTLVTVSS VL: DIQMTQSPSSLSASVGDRVTITCRASQSISRFLHWYQQKPGKAPKLLIYGASSLQSGVPSRFSGSGSGTDFTLTISTLQPEDFATYYCQQSYSTPPITFGQGTRLEIK	0.25	31	0.3	284	0.52	434	59	0.72	0.000587	815000	20	131	0.238	0.000173	728000	67	60	5.02	0.00327	651000	t1/2 [6]: 4 min; 100 nM Ag Bound (RU) [7]: 158 RU; Kd [7]: 0.863 nM; koff [7]: 0.000887 s⁻¹; kon [7]: 1.03e+06 M⁻¹ s⁻¹; t1/2 [7]: 13 min
H1M12386N (antibody, V domains shown) VH: QVQLEESGGGVVKAGGSLRLSCVASGFTFSDYYINWIRQAPGKGLEWVSYINNGGYTIYYADSVKGRFTMSRDNAKNSVYLEMNGLRAEDTAFYYCVRDPRSYYGFDYWGQGTLVTVSS VL: DIQMTQSPSSLSASVGDRVTITCRASQSISSYLNWNQQKPGKAPKLLIYVASSLQSGVPSRFSGSGSGTDFTLTISGLQPEDFAPYYCQQSYITPPITFGQGTRLDIK	0.29	16	0.31	129	0.52	220	65	0.676	0.000365	540000	32	160	0.173	0.000113	654000	102	65	3.61	0.00235	650000	t1/2 [6]: 5 min; 100 nM Ag Bound (RU) [7]: 170 RU; Kd [7]: 0.685 nM; koff [7]: 0.000631 s⁻¹; kon [7]: 921000 M⁻¹ s⁻¹; t1/2 [7]: 18 min
H2M12387N (antibody, V domains shown, also called H2aM12387N) VH: QVQLEESGGGVVKAGGSLRLSCAASGFTFSDYYMNWIRQAPGKGLEWVSYINNGGYTIYYADSVKGRFTMSRDNAKNSVYLQMNGLRAEDTAFYYCVRDPRSYYGFDYWGQGTLVIVSS VL: DIQMTQSPSSLSASVGDRVTITCRASQSISRFLHWYQQKPGKAPKLLIYGASSLQSGVPSRFSGSGSGTDFTLTISSLQPEDFATYYCQQSYSTPPITFGQGTRLEIK	0.15	18	0.29	172	0.39	228	74	0.994	0.00054	543000	21	164	0.129	0.00011	854000	105	77	5.21	0.00354	679000	t1/2 [6]: 3 min; 100 nM Ag Bound (RU) [7]: 196 RU; Kd [7]: 0.596 nM; koff [7]: 0.000657 s⁻¹; kon [7]: 1.1e+06 M⁻¹ s⁻¹; t1/2 [7]: 18 min
H2M12452N (antibody, V domains shown, also called H2aM12452N) VH: QVQLQEAGPGLVKPSETLSLTCIVSGGSISGFYWNWIRQPPGKGLEWIGYFLYSGTIDYNPSLKSRVTISVDTSKNQFFLKLSFVTAADTAVYYCVRMGLGANAFDIWGRGTMVTVSS VL: EIVLTQSPGTLSLSPGERATLSCRASQTVSRSFLAWYQQKPGQAPRLLIYGPSSRATGIPDRFSGSGSGTDFTLTISRLEPEDFAVYYCQQYGNSPWTFGQGTKVEIK	0.74	37	2	260	0.61	593	35	7.33	0.000596	81300	19	91	1.87	0.000228	122000	51	34	6.98	0.00269	385000	t1/2 [6]: 4 min; 100 nM Ag Bound (RU) [7]: 104 RU; Kd [7]: 1.1 nM; koff [7]: 0.000857 s⁻¹; kon [7]: 779000 M⁻¹ s⁻¹; t1/2 [7]: 13 min
